This experiment deals with PB1 (influenza A/WSN/1933 polymerase subunit) (influenza A virus A/WSN/1933) (UniProt P03430). Briefly: cell-based or functional assay.
Sequence of PB1 (influenza A/WSN/1933 polymerase subunit) (influenza A virus A/WSN/1933) (P03430 whole entry): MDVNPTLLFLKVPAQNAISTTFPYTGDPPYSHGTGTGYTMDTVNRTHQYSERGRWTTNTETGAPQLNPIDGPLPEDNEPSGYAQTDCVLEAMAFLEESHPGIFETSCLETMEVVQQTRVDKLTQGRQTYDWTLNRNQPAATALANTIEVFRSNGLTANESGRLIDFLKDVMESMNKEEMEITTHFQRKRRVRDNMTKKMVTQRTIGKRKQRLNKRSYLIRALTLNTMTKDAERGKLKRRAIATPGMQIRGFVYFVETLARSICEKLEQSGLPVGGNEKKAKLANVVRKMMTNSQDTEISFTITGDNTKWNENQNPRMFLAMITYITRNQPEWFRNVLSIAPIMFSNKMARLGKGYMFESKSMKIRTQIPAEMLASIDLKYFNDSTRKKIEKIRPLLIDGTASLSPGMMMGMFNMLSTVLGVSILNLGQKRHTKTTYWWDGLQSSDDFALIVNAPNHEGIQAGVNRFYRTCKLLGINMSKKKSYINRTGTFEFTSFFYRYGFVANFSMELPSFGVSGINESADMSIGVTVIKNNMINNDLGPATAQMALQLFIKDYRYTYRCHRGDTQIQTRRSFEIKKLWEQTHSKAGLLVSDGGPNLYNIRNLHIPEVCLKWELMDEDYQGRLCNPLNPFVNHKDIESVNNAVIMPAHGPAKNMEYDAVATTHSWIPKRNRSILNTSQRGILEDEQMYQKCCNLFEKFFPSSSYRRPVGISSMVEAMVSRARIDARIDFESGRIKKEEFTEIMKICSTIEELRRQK

In turn, “PB2 416/2189 DPR (from UniProt P03427 1-131)” displayed a virus titers of 50%.
Substance PB2 195/2223 DPR registered a virus titers of 50%.

The values above are taken from patent publication US20240228980A1.
